± gives the uncertainty stated by the source.

The data set in a line: amyloid nucleation score (Sup35N fusion, yeast selection) (log enrichment); library NNK1; higher = more nucleation; inactive = no reads after selection. The gist of the method: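 The nucleation score equals the log enrichment of output over input reads from DiMSum, centred on the mode score of non-aggregating sequences. It was computed only for sequences with 100 or more input reads. The reads came from Illumina sequencing of plasmid inserts from psi-negative yeast expressing Sup35N fused to peptides of 20 random codons, induced with 100 μM copper sulfate for 24 hours and grown 7 days at 30°C without adenine and uracil.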
Take SSCYLCLVVYSFTS: the amyloid nucleation score was found to be 5.3 ± 0.072. For SSDFY the value was -1.46 ± 1.3.

As to SSDSLYTYDMDWAWAGTP, the amyloid nucleation score was 0.281 ± 0.38. As to SSGRRWWTFQHHQIYLKVRS, the amyloid nucleation score turned out to be 1.09 ± 0.59. For SSGYYFVQWTCYLRK the value was -1.27 ± 2.7; for SSIALYFGWLGSIR, 0.294 ± 0.85; for SSIIILSNMLTYK, 3.61 ± 0.1. With SSKCDLIDCSSD, the amyloid nucleation score result was “inactive”.

The substance SSKSAWYVRWSVSVQNKGRG showed an amyloid nucleation score of -0.363 ± 0.44.

Take SSLKDSNLWSEIGTLWLTVM: the amyloid nucleation score was -0.091 ± 0.25.

Substance SSLKVLIPYSCYHFV came in with an amyloid nucleation score of 2.76 ± 0.1.

SSLPRYNPR: the amyloid nucleation score result is “inactive”. Next, SSLVATPLGLELIKGRSSSL: 0.57 ± 1.2.

Consider SSLVKTS, for which the amyloid nucleation score is -0.44 ± 0.47. For SSLVVAWF the value was 0.219 ± 0.21; for SSMILSNGVFNCQMGFLACK, 0.461 ± 0.43; for SSMWFYLRM, -0.595 ± 1.9. The substance SSNWFPR displayed an amyloid nucleation score of -0.07 ± 0.59.

On to SSNYADNEGSAHQFGNRRES, for which the amyloid nucleation score is -0.108 ± 0.43. For SSPDFMFYILNRALA the value was -0.526 ± 1.4; for SSPTLLSWVKW, 0.99 ± 0.58; for SSRDGTIRRGWIWVDVRVKS, 0.142 ± 0.48. For the substance SSSGFNIFRLLV, the amyloid nucleation score is -0.325 ± 0.25. In the case of SSSSVVLTRLQPTTGSYEMT, the amyloid nucleation score was -0.667 ± 1.6.

Consider SSWQGLRNLHGSYEDQINVK, for which the amyloid nucleation score was found to be 4.17 ± 0.073.

Regarding SSYMLWFAIFVRNLNPLVFW, the amyloid nucleation score is -0.871 ± 0.37. For STFNFTRIASADMSGTSTIW the value was 0.505 ± 0.33.

The substance STFSSVTGYKPCY came in with an amyloid nucleation score of 0.551 ± 1.2. For STLSVLLSWQN the value was 0.01 ± 0.41; for STTLQERVYSAPATDLRDWA, 0.246 ± 0.37; for STVFNGSGGEDVKKCPPHA, “inactive”.

Substance STVIHN returned an amyloid nucleation score of 1.23 ± 0.84. STVTTAYNDMSLIWQAARVL displayed an amyloid nucleation score of 0.436 ± 0.57. For SVAFWSVCRVLGTDADMDRI the value was -0.254 ± 0.58; for SVCGSLSC, 1.16 ± 0.76. For SVKYMVIDFQLKRMEVVINK the value was 0.354 ± 0.36; for SVPAHFNRYMCNRGYCRFRR, “inactive”; for SVRANIA, 1.34 ± 0.38.

Consider SVRGSYCYASLVCSDFL, for which the amyloid nucleation score is -1.12 ± 0.84.

Turning to SVSFEDDISMASGCCFLRGC, the amyloid nucleation score is -0.146 ± 0.25.

Consider SVSNTYERE, for which the amyloid nucleation score came out at 0.879 ± 0.68. For SVTDRKV the value was 0.468 ± 0.41; for SVTWFIYAWWFLGGSL, -0.921 ± 2.4; for SVTWSYVTHLLLWLFGGAGL, 0.848 ± 0.76. Consider SVVRNESNSLVH, for which the amyloid nucleation score worked out at 0.065 ± 0.28.

Substance SVYKVPVVYGINTRFYFSES came in with an amyloid nucleation score of 1.18 ± 0.33. As to SVYVGRGHFLQKFRRLLRFE, the amyloid nucleation score result is “inactive”. Next, SWASLIC: -0.838 ± 0.89; SWCVTCVLA: 7.204 ± 0.053.

SWFIL yielded an amyloid nucleation score of 0.428 ± 0.85.

SWFNISAVLENMGRYS came in with an amyloid nucleation score of 0.26 ± 0.44. Next, SWFWHPYFCHRRIGSMGDGV: -0.017 ± 0.58; SWGLGSFLY: 0.06 ± 0.36. For SWLVPR the value was -0.104 ± 0.25; for SWNFTLLD, “inactive”; for SWNKGLREED, 0.562 ± 0.72.

Substance SWNLGADIAMDDHVESV returned an amyloid nucleation score of 0.601 ± 0.39. Next, SWRGICV: “inactive”; SWSRRDVYKEGLDGGMGEGA: -1.07 ± 1.3; SWSSKRNVWEHIVGESYEYF: “inactive”.

The values are drawn from the supplement of paper PMC12042874.
